Tests used:
[1] = target: Recombinant SARS-CoV-2 spike (S) protein (SARS-CoV-2) (UniProt P0DTC2)
[2] = target: Recombinant SARS-CoV-2 spike (S) protein (SARS-CoV-2) (UniProt P0DTC2); remark: listed apart in the source

Substance | cell binding assay: binding of SARS-CoV-2 S lentiviral pseudoparticles pre-treated with FH (20 ug/ml) to A549-hACE2+TMPRSS2 cells, decrease against untreated pseudoparticles [1] [%] | luciferase reporter activity: entry of SARS-CoV-2 S lentiviral pseudoparticles pre-treated with FH (20 ug/ml) into A549-hACE2+TMPRSS2 cells, reduction against untreated pseudoparticles [2] [%] | cell binding assay: binding of SARS-CoV-2 S lentiviral pseudoparticles pre-treated with FP (20 ug/ml) to A549-hACE2+TMPRSS2 cells, increase against untreated pseudoparticles [1] [%] | luciferase reporter activity: entry of SARS-CoV-2 S lentiviral pseudoparticles pre-treated with FP (20 ug/ml) into A549-hACE2+TMPRSS2 cells, increase against untreated pseudoparticles [2] [%]
Human complement factor H (from UniProt P08603 19-1231) (natural protein) | 35 | 25 |  | 
Human native properdin (from UniProt P27918 28-469) (natural protein) |  |  | 30 | 80

— article PMC12395051
